Source: paper PMC4888247
Where “and” joins values, the source holds several entries; their conditions need not be identical. Equal values may be shown once.

Key:
human S100A8 (human) [1] = molecular target: human S100A8 (human) (UniProt P05109); experiment: SEC; 24 ml Superdex 75, 20 mM HEPES pH 7.5, 200 mM NaCl, 5 mM CaCl2 (calcium only, no zinc); sizes from a calibration curve with protein standards
human S100A8 (human) [2] = molecular target: human S100A8 (human) (UniProt P05109); experiment: crystal structure; crystal form 2, C2221, 2.1 A; Zn2+/Ca2+-bound with a (Zn)2-cacodylate complex; 5 mM ZnCl2, 0.1 M Na cacodylate pH 6.5, 8 % PEG 8000; four molecules per asymmetric unit
human S100A8 (human) [3] = molecular target: human S100A8 (human) (UniProt P05109); experiment: crystal structure; crystal form 1, P212121, 2.2 A; Zn2+/Ca2+-bound (3 mM ZnCl2 added); 0.2 M ammonium acetate, 0.1 M Na acetate pH 4.0, 15 % PEG 3350, 0.4 % 2,2,2-trifluoroethanol; eight molecules per asymmetric unit

stoichiometry N (human S100A8 (human) [1]): 4 and 2
stoichiometry N (human S100A8 (human) [2]): 4
stoichiometry N (human S100A8 (human) [3]): 4
Substance: human S100A8 (from UniProt P05109 2-93) (natural protein)
